This is an account of results in patent US20260209355.

Substitutions are numbered along the chain they refer to.

Data set [1] concerns the target T1, L145K mutated biotinylated and Myc tagged human CD28 stalk region dimeric peptide.
T1 chain: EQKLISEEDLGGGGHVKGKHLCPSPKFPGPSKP

The target in data set [2] is T2, c-Myc conjugated and biotinylated human CD28 stalk region dimeric peptide (wild-type).
T2 chain: T1 chain with K26L

Data set [3] concerns the target T3, quenched fluorogenic peptide of the human CD28 stalk region (WT).
T3 chain: KGKHLSPSPLFPGPSKPE

The target of data set [4] is quenched fluorogenic peptide of the human CD28 stalk region with L145K.

B1: Recombinant human MMP-2 (protein)
chain: YNFFPRKPKWDKNQITYRIIGYTPDLDPETVDDAFARAFQVWSDVTPLRFSRIHDGEADIMINFGRWEHGDGYPFDGKDGLLAHAFAPGTGVGGDSHFDDDELWTLGEGQVVRVKYGNADGEYCKFPFLFNGKEYNSCTDTGRSDGFLWCSTTYNFEKDGKYGFCPHEALFTMGGNAEGQPCKFPFRFQGTSYDSCTTEGRTDGYRWCGTTEDYDRDKKYGFCPETAMSTVGGNSEGAPCVFPFTFLGNKYESCTSAGRSDGKMWCATTANYDDDRKWGFCPDQGYSLFLVAAHEFGHAMGLEHSQDPGALMAPIYTYTKNFRLSQDDIKGIQELYGASPDIDLGTGPTPTLGPVTPEICKQDIVFDGIAQIRGEIFFFKDRFIWRTVTPRDKPMGPLLVATFWPELPEKIDAVYEAPQEEKAVFFAGNEYWIYSASTLERGYPKPLTSLGLPPDVQRVDAAFNWSKNKKTYIFAGDKFWRYNEVKKKMDPGFPKLIADAWNAIPDNLDAVVDLQGGGHSYFFKGAYYLKLENQSLKSVKFGSIKSDWLGC
B1: the “percent of peptide cleaved (intact peptide by anti-Myc ELISA, 25 and 50 ng enzyme, 5 hours)” value in data set [1] is on record as “the mutated peptide was not substantially cleaved (<5%) by either MMP-2 or MMP-13”. Moreover, the “intact peptide by anti-Myc ELISA (25 and 50 ng enzyme, 5 hours)” value in data set [2] is “the WT peptide was cleaved in a dose dependent manner”. Further, in data set [3], the “fluorescence from cleavage of quenched fluorogenic peptide” value is “MMP-2 cleaves the stalk domain peptide”; the “fluorescence from cleavage of quenched fluorogenic peptide (2.5 µM peptide, 30 ng enzyme)” value was “both enzymes efficiently cleaved the WT peptide”; the “fluorescence from cleavage of quenched fluorogenic peptide, titration of protease” value is “the cleavage of the peptide was dose dependent”. In addition, in data set [4], the “fluorescence from cleavage of quenched fluorogenic peptide (2.5 µM peptide, 30 ng enzyme)” value is “both were completely incapable of cleaving the mutant peptide”.

B2: Recombinant human ADAM-10 (protein)
chain: TTSAEKNTCQLYIQTDHLFFKYYGTREAVIAQISSHVKAIDTIYQTTDFSGIRNISFMVKRIRINTTADEKDPTNPFRFPNIGVEKFLELNSEQNHDDYCLAYVFTDRDFDDGVLGLAWVGAPSGSSGGICEKSKLYSDGKKKSLNTGIITVQNYGSHVPPKVSHITFAHEVGHNFGSPHDSGTECTPGESKNLGQKENGNYIMYARATSGDKLNNNKFSLCSIRNISQVLEKKRNNCFVESGQPICGNGMVEQGEECDCGYSDQCKDECCFDANQPEGRKCKLKPGKQCSPSQGPCCTAQCAFKSKSEKCRDDSDCAREGICNGFTALCPASDPKPNFTDCNRHTQVCINGQCAGSICEKYGLEECTCASSDGKDDKELCHVCCMKKMDPSTCASTGSVQWSRHFSGRTITLQPGSPCNDFRGYCDVFMRCRLVDADGPLARLKKAIFSPELYENIAE
With B2, the “fluorescence from cleavage of quenched fluorogenic peptide” value in data set [3] was “ADAM-10 and ADAM-17 did not”.
